Data taken from patent publication US20230265192A1 (GIGAGEN, published 2023).

B1: antibody A5 (L5H5) (antibody, V domains shown)
VH: QVQLVESGGGVVQPGRSLRLSCAASGFTFSSYGMHWVRQAPGKGLEWVAVIWYDGNNKYYADSVKGRFTISRDNSKNTLYLQMYSLRAEDTAVYYCARGGILAAGIFDYWGQGTLVTVSS
VL: EIVLTQSPGTLSLSPGDRATLSCRASQSGSSSYLAWYQQKPGQAPRLLIYGASSRATGIPDRFSGSGSGTDFTLTISRLEPEDFAVYYCQQYGTSPFTSGPGTKVDIK
notes: also called aCTLA-4.28; CTLA4.A5
B2: antibody A7 (L7H7) (antibody, V domains shown)
VH: QVQLVESGGGVVQPGRSLRLSCAASGFTLSSFGMHWVRQAPGKGLEWVAVIWYDGSNKYYADSVKGRFIISRDNSKTALYLQMNSLRAEDTAVYYCARAHYFGAFDIWGQGTMVTVSS
VL: not shown
notes: also called aCTLA-4.3; CTLA4.A7
B3: antibody A2 (L2H2) (antibody, V domains shown)
VH: QVQLVESGGGVVQPGRSLRLSCAASGFTFSNYGMNWVRQAPGKGLEWVAVIWYDGRNKHYADSVKGRFTISRDNSKNTLYLQMNSLRAEDTAVYYCARGGDWGPYFDYWGQGTLVTVSS
VL: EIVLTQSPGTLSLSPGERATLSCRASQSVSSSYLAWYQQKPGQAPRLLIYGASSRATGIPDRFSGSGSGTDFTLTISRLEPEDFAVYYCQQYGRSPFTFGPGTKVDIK
notes: also called aCTLA-4.4; CTLA4.A2

Target: T1, His-tagged human CTLA-4 (CT4-H5229; Acro Biosystems) (human, UniProt P16410 36-161)
T1 construct: bought soluble protein; also called soluble human CTLA-4; recombinant human CTLA-4; not shown: His tag
Test: SPR (Carterra)
Procedure, shortened: (§1)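 mAb supernatants captured, at two densities, on an anti-human IgG Fc lawn. His-tagged human CTLA-4 injected at 1.95, 7.8, 31.25, 125 and 500 nM in HBS-EPC pH 7.4 with 1.0 mg/mL BSA, as a non-regenerative series with 5-min association and 15-min dissociation. Double-referenced data fitted for ka, kd and KD.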

T1 sequence (P16410 36-161 limits assumed): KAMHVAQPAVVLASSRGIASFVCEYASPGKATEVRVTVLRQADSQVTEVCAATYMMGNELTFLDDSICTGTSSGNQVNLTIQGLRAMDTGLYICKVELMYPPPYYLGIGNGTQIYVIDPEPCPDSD

B1 and B2 are within 1.5-fold of each other in Kd: 4.6 nM for the first, 5.7 nM for the second.

With B3 the Kd was 5.1 nM.

Target: T1, His-tagged human CTLA-4 (CT4-H5229; …)
Test: SPR (Carterra)
Remark: another data set of the same source
Procedure, shortened: as §1

B1 and B2 are within 1.5-fold of each other in Kd: 4.6 nM for the first, 5.7 nM for the second.

B3 gave a Kd of 5.1 nM.

B1 and B2 are within 1.5-fold of each other in koff: 0.00042 s⁻¹ for the first, 0.00036 s⁻¹ for the second.

With B3 the koff was 0.00052 s⁻¹.

B1 and B2 are within 1.5-fold of each other in kon: 90000 M⁻¹ s⁻¹ for the first, 64000 M⁻¹ s⁻¹ for the second.

In the case of B3, the kon is reported as 100000 M⁻¹ s⁻¹.

Target: T2, CD27 on CHO cells (UniProt P26842 20-260, limits assumed)
T2 construct: whole, on cells; also called CD27+ CHO cells; irrelevant antigen (CD27)
Test: flow cytometry, mixed CTLA-4+ and CD27+ CHO cells
Procedure, shortened: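 CHO cells stably expressing human CTLA-4 mixed with CD27-expressing CHO cells, then incubated with 10 μg/mL mAb for 30 min at 4 °C. Bound mAb detected with PE anti-human IgG Fc, CD27 cells gated by FITC anti-CD27; cells fixed in 4% paraformaldehyde before flow cytometry.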

T2 sequence (P26842 20-260 limits assumed): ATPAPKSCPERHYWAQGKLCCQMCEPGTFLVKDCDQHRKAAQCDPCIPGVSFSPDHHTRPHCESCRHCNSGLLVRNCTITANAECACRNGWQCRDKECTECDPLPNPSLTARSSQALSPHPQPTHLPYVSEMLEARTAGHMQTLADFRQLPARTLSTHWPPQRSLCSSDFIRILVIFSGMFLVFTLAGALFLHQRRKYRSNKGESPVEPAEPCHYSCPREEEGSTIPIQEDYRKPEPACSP

B1: no binding (tested: 10 µg/mL).
B2: no binding (tested: 10 µg/mL).
B3: no binding (tested: 10 µg/mL).

Target: T2, CD27 on CHO cells
Test: flow cytometry, 10 µg/mL mAb, geometric MFI

Going from B1 to B2, the “MFI of CD27+ CHO cells” value falls from 17.2 to 15.3.

In the case of B3, the “MFI of CD27+ CHO cells” value is reported as 11.7.

Target: T3, human CTLA-4 expressed on the cell surface (human, UniProt P16410 36-223)
T3 construct: CHO cells stably expressing human CTLA-4; also called hCTLA-4; CTLA-4+ CHO cells
Test: flow cytometry, 10 µg/mL mAb, geometric MFI

T3 sequence (P16410 36-223 limits assumed): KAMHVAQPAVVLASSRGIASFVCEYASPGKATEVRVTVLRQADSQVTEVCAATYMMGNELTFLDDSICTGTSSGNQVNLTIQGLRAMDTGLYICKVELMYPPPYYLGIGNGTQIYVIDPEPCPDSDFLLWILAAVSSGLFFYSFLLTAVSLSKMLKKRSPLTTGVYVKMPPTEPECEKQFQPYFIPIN

Going from B1 to B2, the “MFI of CTLA-4+ CHO cells” value falls from 1030 to 854.

With B3 the “MFI of CTLA-4+ CHO cells” value was 1120.

Target: T3, human CTLA-4 expressed on the cell …
Test: cell-based or functional assay

B1 and B2 are within 1.5-fold of each other in “Cell-based blocking activity EC50” value: 0.18 µg/mL for the first, 0.17 µg/mL for the second.

In the case of B3, the “Cell-based blocking activity EC50” value is reported as 0.12 µg/mL.

First: B1
Second: B2
The “Cell-based blocking activity max signal (RLU)” value of the first is higher: 548 RLU for the first, 63 RLU for the second.

With B3 the “Cell-based blocking activity max signal (RLU)” value was 413 RLU.

Target: T4, His-tagged cynomolgus CTLA-4 (CT4-C5227; Acro Biosystems) (cynomolgus, UniProt G7PL88 36-161)
T4 construct: also called soluble cynomolgus CTLA-4; cyno CTLA-4
Test: BLI (Octet), single antigen concentration
Procedure: Table 23. In vitro characterization of scFvs reformatted as full-length antibodies. kon, koff, and KD of the indicated CTLA-4 mAbs for soluble human CTLA-4 was determined by SPR (Carterra). Geometric MFI of the indicated CTLA-4 mAbs bound to CTLA-4⁺ or CD27⁺ CHO cells as detected by a secondary human IgG antibody and flow cytometry. Affinity (KD) of the indicated CTLA-4 mAbs for soluble cynomolgus CTLA-4 was determined by a single antigen concentration BLI measurement (Octet). […] Due to constraints on sample size in each Promega bioassay kit, this set of aCTLA-4 mAbs was analyzed using multiple plates (plate letters correspond to Plate A-D in FIG. 20D).
Antibodies were loaded at 5 μg/mL onto Protein A biosensors that were dipped into 80 nM antigen, and kinetic constants were calculated using a monovalent model.

T4 sequence (G7PL88 entry or part of it limits assumed, form in doubt): as the sequence (P16410 36-161 limits assumed) above, with S14N, I18T, L106M counted along it

Going from B1 to B2, the Kd falls from 2.2 nM to 0.8 nM (2.8-fold). The second binds more tightly here.

In the case of B3, the Kd is reported as 3.1 nM.

Target: T3, human CTLA-4 expressed on the cell …
Test: cell-based or functional assay
Remark: another data set of the same source

Compared with B1, B2 is lower in “Promega assay % inhibition” value: 100% for the first, 11.5% for the second.

For B3, the “Promega assay % inhibition” value was 75.4%.

B1 and B2 are within 1.5-fold of each other in “Promega assay antagonist (EC50, ug/mL)” value: 0.18 µg/mL for the first, 0.17 µg/mL for the second.

B3 was tested, and the “Promega assay antagonist (EC50, ug/mL)” value was 0.12 µg/mL.
